± gives the uncertainty stated by the source.

To fix the notation:
B1: Protein C-ets-1, residues 55 to 135; numbered along this chain, P14921 (parent)
chain: GFTKEQQRLGIPKDPRQWTETHVRDWVMWAVNEFSLKGVDFQKFCMNGAALCALGKDCFLELAPDFVGDILWEHLEILQKE

In the series the parent is B1. The series can be described thus: abundance fitness (aPCA) (normalised: wild type 0, dead -1); higher = more abundant; growth selection in yeast, the domain comes from the species named. To be noted: Homo sapiens.
GFTKEQQRLGIPKDPRQWTETHVRDWVMWAVNEFSLKGVDFQKFCMNGAALCASGKDCFLELAPDFVGDILWEHLEILQKE [L54S]: the abundance fitness was -0.445 ± 0.032.
Consider GFTKEQQRLGIPKDPRQWTETHVRDWVMWAVNEFSLKGVDFQKFCMNGAALCAMGKDCFLELAPDFVGDILWEHLEILQKE [L54M], for which the abundance fitness was -0.022 ± 0.05.
As for GFTKEQQRLGIPKDPRQWTETHVRDWVMWAVNEFSLKGVDFQKFCMNGAALCAKGKDCFLELAPDFVGDILWEHLEILQKE [L54K], the figure is -0.102 ± 0.05; as for GFTKEQQRLGIPKDPRQWTETHVRDWVMWAVNEFSLKGVDFQKFCMNGAALCATGKDCFLELAPDFVGDILWEHLEILQKE [L54T], -0.33 ± 0.042; as for GFTKEQQRLGIPKDPRQWTETHVRDWVMWAVNEFSLKGVDFQKFCMNGAALCAHGKDCFLELAPDFVGDILWEHLEILQKE [L54H], -0.598 ± 0.078.
With GFTKEQQRLGIPKDPRQWTETHVRDWVMWAVNEFSLKGVDFQKFCMNGAALCAYGKDCFLELAPDFVGDILWEHLEILQKE [L54Y] the figure was -0.292 ± 0.033; with GFTKEQQRLGIPKDPRQWTETHVRDWVMWAVNEFSLKGVDFQKFCMNGAALCANGKDCFLELAPDFVGDILWEHLEILQKE [L54N], -0.302 ± 0.059; with GFTKEQQRLGIPKDPRQWTETHVRDWVMWAVNEFSLKGVDFQKFCMNGAALCAAGKDCFLELAPDFVGDILWEHLEILQKE [L54A], -0.338 ± 0.032.
As for GFTKEQQRLGIPKDPRQWTETHVRDWVMWAVNEFSLKGVDFQKFCMNGAALCACGKDCFLELAPDFVGDILWEHLEILQKE [L54C], the figure is -0.666 ± 0.079.
GFTKEQQRLGIPKDPRQWTETHVRDWVMWAVNEFSLKGVDFQKFCMNGAALCAVGKDCFLELAPDFVGDILWEHLEILQKE [L54V]: the abundance fitness is -0.254 ± 0.032.
With GFTKEQQRLGIPKDPRQWTETHVRDWVMWAVNEFSLKGVDFQKFCMNGAALCARGKDCFLELAPDFVGDILWEHLEILQKE [L54R] the figure was -0.238 ± 0.028; with GFTKEQQRLGIPKDPRQWTETHVRDWVMWAVNEFSLKGVDFQKFCMNGAALCAGGKDCFLELAPDFVGDILWEHLEILQKE [L54G], -0.229 ± 0.027; with GFTKEQQRLGIPKDPRQWTETHVRDWVMWAVNEFSLKGVDFQKFCMNGAALCAPGKDCFLELAPDFVGDILWEHLEILQKE [L54P], -0.775 ± 0.072.
With GFTKEQQRLGIPKDPRQWTETHVRDWVMWAVNEFSLKGVDFQKFCMNGAALCAQGKDCFLELAPDFVGDILWEHLEILQKE [L54Q], the abundance fitness was -0.299 ± 0.056.
With GFTKEQQRLGIPKDPRQWTETHVRDWVMWAVNEFSLKGVDFQKFCMNGAALCAWGKDCFLELAPDFVGDILWEHLEILQKE [L54W] the figure was -0.582 ± 0.051; with GFTKEQQRLGIPKDPRQWTETHVRDWVMWAVNEFSLKGVDFQKFCMNGAALCAIGKDCFLELAPDFVGDILWEHLEILQKE [L54I], -0.078 ± 0.064.
With GFTKEQQRLGIPKDPRQWTETHVRDWVMWAVNEFSLKGVDFQKFCMNGAALCADGKDCFLELAPDFVGDILWEHLEILQKE [L54D] the figure was -0.791 ± 0.092.
As for GFTKEQQRLGIPKDPRQWTETHVRDWVMWAVNEFSLKGVDFQKFCMNGAALCALGADCFLELAPDFVGDILWEHLEILQKE [K56A], the figure is -0.482 ± 0.04; as for GFTKEQQRLGIPKDPRQWTETHVRDWVMWAVNEFSLKGVDFQKFCMNGAALQALGKDCFLELAPDFVGDILWEHLEILQKE [C52Q], -0.494 ± 0.062.
Consider GFTKEQQRLGIPKDPRQWTETHVRDWVMWAVNEFSLKGVDFQKFCMNGAALEALGKDCFLELAPDFVGDILWEHLEILQKE [C52E], for which the abundance fitness is -0.542 ± 0.038.
With GFTKEQQRLGIPKDPRQWTETHVRDWVMWAVNEFSLKGVDFQKFCMNGAALHALGKDCFLELAPDFVGDILWEHLEILQKE [C52H] the figure was -0.534 ± 0.079; with GFTKEQQRLGIPKDPRQWTETHVRDWVMWAVNEFSLKGVDFQKFCMNGAALWALGKDCFLELAPDFVGDILWEHLEILQKE [C52W], -0.641 ± 0.046; with GFTKEQQRLGIPKDPRQWTETHVRDWVMWAVNEFSLKGVDFQKFCMNGAALKALGKDCFLELAPDFVGDILWEHLEILQKE [C52K], -0.627 ± 0.052.
Consider GFTKEQQRLGIPKDPRQWTETHVRDWVMWAVNEFSLKGVDFQKFCMNGAALGALGKDCFLELAPDFVGDILWEHLEILQKE [C52G], for which the abundance fitness was -0.562 ± 0.024.
With GFTKEQQRLGIPKDPRQWTETHVRDWVMWAVNEFSLKGVDFQKFCMNGAALPALGKDCFLELAPDFVGDILWEHLEILQKE [C52P] the figure was -0.896 ± 0.073.
As for GFTKEQQRLGIPKDPRQWTETHVRDWVMWAVNEFSLKGVDFQKFCMNGAALIALGKDCFLELAPDFVGDILWEHLEILQKE [C52I], the figure is -0.029 ± 0.052; as for GFTKEQQRLGIPKDPRQWTETHVRDWVMWAVNEFSLKGVDFQKFCMNGAALYALGKDCFLELAPDFVGDILWEHLEILQKE [C52Y], -0.472 ± 0.065.
For the variant GFTKEQQRLGIPKDPRQWTETHVRDWVMWAVNEFSLKGVDFQKFCMNGAALRALGKDCFLELAPDFVGDILWEHLEILQKE [C52R], the abundance fitness is -0.564 ± 0.034.
As for GFTKEQQRLGIPKDPRQWTETHVRDWVMWAVNEFSLKGVDFQKFCMNGAALAALGKDCFLELAPDFVGDILWEHLEILQKE [C52A], the figure is -0.303 ± 0.029; as for GFTKEQQRLGIPKDPRQWTETHVRDWVMWAVNEFSLKGVDFQKFCMNGAALMALGKDCFLELAPDFVGDILWEHLEILQKE [C52M], -0.079 ± 0.04; as for GFTKEQQRLGIPKDPRQWTETHVRDWVMWAVNEFSLKGVDFQKFCMNGAALNALGKDCFLELAPDFVGDILWEHLEILQKE [C52N], -0.497 ± 0.075.
With GFTKEQQRLGIPKDPRQWTETHVRDWVMWAVNEFSLKGVDFQKFCMNGAALVALGKDCFLELAPDFVGDILWEHLEILQKE [C52V] the figure was -0.066 ± 0.027; with GFTKEQQRLGIPKDPRQWTETHVRDWVMWAVNEFSLKGVDFQKFCMNGAALSALGKDCFLELAPDFVGDILWEHLEILQKE [C52S], -0.185 ± 0.033.
As for GFTKEQQRLGIPKDPRQWTETHVRDWVMWAVNEFSLKGVDFQKFCMNGAALFALGKDCFLELAPDFVGDILWEHLEILQKE [C52F], the figure is -0.325 ± 0.056.

(Values after the Human Domainome abundance scans (Beltran et al. 2025).)
